Data set [1] has as its target Mos1 transposase R48Q/Q100R D284A (with T216A), DNA binding and catalytically inactive mutant (Drosophila mauritiana). In words: SEC.
For data set [2], the target named is Mos1 transposase R48Q/Q100R (with T216A), DNA binding deficient mutant (Drosophila mauritiana). The data set is described as follows: SEC. In general terms: Size exclusion chromatography separates by hydrodynamic size, large species first.
The target in data set [3] is Mos1 transposase D284A (with T216A), catalytically inactive mutant (Drosophila mauritiana). The data set is described as follows: SEC.
In data set [4] the target is T1, Mos1 transposase T216A (Drosophila mauritiana (mariner Mos1), UniProt Q7JQ07 1-345, T216A).
T1 sequence: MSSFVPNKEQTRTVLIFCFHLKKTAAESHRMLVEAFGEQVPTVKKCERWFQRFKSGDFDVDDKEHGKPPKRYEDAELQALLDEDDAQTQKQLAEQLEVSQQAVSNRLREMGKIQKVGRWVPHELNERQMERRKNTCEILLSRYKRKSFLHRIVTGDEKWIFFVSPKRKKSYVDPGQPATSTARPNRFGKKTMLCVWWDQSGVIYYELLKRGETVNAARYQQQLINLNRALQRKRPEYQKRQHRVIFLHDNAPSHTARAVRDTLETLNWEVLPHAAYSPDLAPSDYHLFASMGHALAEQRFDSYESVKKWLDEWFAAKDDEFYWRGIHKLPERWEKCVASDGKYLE
In words: X-ray crystallography.

Data set [5] has as its target T1, Mos1 transposase T216A. The data set is described as follows: X-ray crystallography. This is another data set of the same source.
Data set [6] deals with T2, Mos1 transposase R48Q/Q100R (Drosophila mauritiana (mariner Mos1), UniProt Q7JQ07 1-345, R48Q;Q100R;T216A).
T2 sequence: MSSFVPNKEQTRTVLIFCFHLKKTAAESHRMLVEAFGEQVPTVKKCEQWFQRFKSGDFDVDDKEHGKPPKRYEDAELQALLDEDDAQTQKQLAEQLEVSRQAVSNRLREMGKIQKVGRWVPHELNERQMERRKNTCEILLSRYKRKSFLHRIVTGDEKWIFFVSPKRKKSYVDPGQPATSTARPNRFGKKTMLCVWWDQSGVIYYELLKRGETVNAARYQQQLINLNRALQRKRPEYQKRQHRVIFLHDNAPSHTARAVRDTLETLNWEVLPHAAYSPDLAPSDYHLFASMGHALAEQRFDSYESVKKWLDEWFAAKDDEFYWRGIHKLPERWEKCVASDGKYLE
In words: EMSA. Background: Mobility shift assays separate free from complexed probe on a gel.

Like-named read-outs stand apart in the source and are kept apart here.

Usually stoichiometry N stands for a count of units in the complex or per binding partner. With “Mos1 transposase R48Q/Q100R D284A (with T216A), DNA binding and catalytically inactive mutant (enzyme)”, the stoichiometry N in data set [1] turned out to be 2.
With “Mos1 transposase R48Q/Q100R (with T216A), DNA binding deficient mutant (enzyme)”, the stoichiometry N in data set [2] came out at 2.
“Mos1 transposase D284A (with T216A), catalytically inactive mutant (enzyme)” had a stoichiometry N in data set [3] of 2.

B1: pre-cleaved IRR duplex (28 nt TS / 25 nt NTS) (dsDNA)
DNA 1: AAACGACATTTCATACTTGTACACCTGA
DNA 2: GGTGTACAAGTATGAAATGTCGTTT
modifications: 5' phosphate on NTS
Turning to B1, the binding result in data set [4] was “binds”.

B2: IRR duplex with 5-iodo-dU at T16 (dsDNA)
DNA 1: AAACGACATTTCATACTTGTACACCTGA
DNA 2: GGTGTACAAGTATGAAATGTCGTTT
modifications: 5-iodo-dU replacing T16 (NTS nucleotide 13 by structure numbering); 5' phosphate on NTS presumed
In the case of B2, the binding result in data set [5] was “binds”.

B3: 100 bp IRR plus flank NTS cleavage substrate (dsDNA)
DNA 1: ACGGGCTCCAGTCGGTGAATATAGAAACTATCAGGTGTACAAGTATGAAATGTCGTTTTTTTTAAATCAAAAAACACGTTAAATTTTGTGGAAAAAGAAA
DNA 2: TTTCTTTTTCCACAAAATTTAACGTGTTTTTTGATTTAAAAAAAACGACATTTCATACTTGTACACCTGATAGTTTCTATATTCACCGACTGGAGCCCGT
Regarding B3, in data set [6], the binding result was “no binding”.

The record behind these values is publication PMC3977044.
